Source: the DeepSol protein solubility set

experiment: soluble on expression in E. coli; label from the status in PepcDB or PDB records

Row | Sequence | soluble on expression in E. coli
1 | MSTDPTPPQLTRRTAKVSIDNQTGSHFKFQVTHKYTGWDADKSDVVMFQPDEVKEIFKSVAYNTGFLTTGVDNWLVDGTMVQERTEVDNKGHQIGKKSYIEHAKFISDSRSWKQHMLTAEDDGKTTTIRVFPTEIHFISPSGESTTTFTKY | not soluble
2 | MLVLIRVFNTLGRRKEVFNPYSPPLVGMYVCGPTVYDYTHIGHARTFTVFDAIKRYLRLRGYDVFHVQNITDIDDKIINRAREEGRDWREIVREYSRDYLEGLGSLGIQIDHHPRVTDHISDIIRFIEGLIEKGYAYVAESGSVYFEVDKYPGYGMLSGHLSKEAWRQEEDVLHEKKSPYDFALWKAAKPGEPSWESPWGRGRPGWHIECSVMSSRYLGSRIDIHGGGVDLVFPHHENERAQSESYFGHRWVRYWLHASYLTIKGEKMSKSLGNIIPLREALREWGPGPLRLWLLSSHYRSNLDYSEEALGQYRRLYERLRQAADSIGRRLERAEPKGRLGEGELETVERLKGVVRRWHEAMSDDFNMGKAMSSLWEFTTIYFREVEQTESYTLLWLSWRILTGFNSVYAFAPDIVEARRPERSLEDSLVQALVDVRSELRRRKMYDLADEIRSRLAQLGFVLHDKGEKTEWRRR | soluble
3 | MSFAPMLLATINNSIGNKDKHVSLEYLIGLFMDKKTTNLSNTDKYIIGTIQTEALEQEIEWFSQDYHIPMENILHVLSINPYQ | not soluble
4 | STMLRVRSRDGLERVSVDGPHITVSQLKTLIQDQLQIPIHNQTLSTNRNLLLAKSPSDFLAFTDMADPNLRISSLNLAHGSMVYLAYEGERTIRGGPAVTPAGSFGRKMTVEDLIARQMRVGRQEKAHCDSVSFDRDCANAFQHFVNESLAFAVKRGGFMYGNVSEDGQVEVNFIYEPPQQGMEDNLILMRDSEEEKRVDAIALGLGMRRVGFIFNQTVTQDKKEYTLSNVEVLLAAQLHAESELKEWVTAVVKLEINEDGGADVHFEPFQMSDMCVRLFKEGWFETEIGPEDDPKLSKLKKEVVVGVKDVKEVDNDFFLVLVKILDHQGPLSCTFPIENRNTQTTMRALKTHMERARSLPFVKRISDFHLLLFVAQFLDVSSDVPALAECVRLQSHVPEGYELLIDSMANTS | soluble
5 | MAHHHHHHMKQIDQLIIEEADENTIIPYYLSNLLTNASNPVVFMDVNLGNHFLGKFKFELFQNIVPKTSENFRQFCTGEYKVNNLPVGYKNTTFHRVIKEFMIQGGDFVNYNGSGSLSIYGEIFEDENFDVKHDQEGLLSMANSGPNTNGCQFFITTKKCEWLDGKNVVFGRIIDSDSLILLKKIENVSVTPYIYKPKIPINIVECGEL | not soluble
6 | MENKMESIEQQVEVLLEQEPQLLPAAMAERLGVTEFDVVAALPQEMVAISPGEQAQTILESLVGFGPVTTIVHSFGSIFEVKAPFPKGKVARGYYNLMGREGELHGHLKLDNVKNIALVSKPFMGRESHYFGFFSECGSNIFKVYLGRDEKRELIAEQVTAFRAMQAELNQLEHHHHHH | not soluble
7 | SDKFLVRPDLRDLQGGGEEPAPTGGASGDLKSPDWRHLRAEGLSCDYTVLFGKAEADKIFRELEQEVEYFTGALAKVQVFGKWHSVPRKQATYGDAGLTYTFSGLTLTPKPWVPVLERVRDRVCEVTGQTFNFVLVNRYKDGCDHIGEHRDDERELAPGSPIASVSFGACRDFIFRHKDSRGKRPRRTVEVVRLQLAHGSLLMMNPPTNTHWYHSLPIRKRVLAPRVNLTFRKILPTKK | soluble
8 | MSLNGNATDSSSSTSSMTENSDGQKQNNEWFHGVLQRQDADELLVKPGSFLLRASEVHGKMSMILSVRHDGKLHNIAVNSDTGENFWFEGHREKSIDQLVQWHMTTSTPITKTSGVKLKYPIGKADWIISHENVIFIKKLGEGAFGEVSLAECEIGGRKVETAVKTMRCQMTRDTRAAFMKEARLMRKYSHPHIVRIIGKIIVKHLPKVGLAVDAHPLMIVMEMCPHGSLLSFLRKNKGKTTLSERLRFCIESADGLAYLEKKQCLHRDIAARNCLLSITDQIKISDFGLSDDKRTEMHDDTLDKVPVKWLAPEVMQDKLYSLKSDVWAFGVLMWEIYADGADPYPGMTNLVTRAKIFCDDYRMTFPETTPPTISEIALKQCWAKLPSDRATMKTVHHKLKDLSMPMSDVSFSMKMKR | not soluble
9 | MIGRNRYAMLTVDTEALPKRAVQDHIKRLMWGEHDGGCAGIREMCAIGNECGVKQVFFVDMCGAYACLDQTLDVVRWLDQDGQDVQLHAHPEYLPEQFWKEHGFKYRPRFLNQYGIEKATFTIKYFGKLISDLTGKPLRAFRAGSFRWNADTLRALQEAGVSLSFNNSMNARLKGQCTYSEPTNHSYLWSNGVIEVPVTERKFFPLFGKEWWGRLQFPVGDWLGSPPWRVLRPYTVGADPSFLVVLLHSWSLLYWDKDGYAVYRDDKRIEDYRKLVRRLARDYDIITTADFLDLYACGKIKTTHTADLSLAEFKAVKKLEHHHHHH | not soluble
10 | MGQAGKQVAPVKCKGWAVEKPALKWSTDAVRLSDVTVPAPDPTQIRVRVYAASINPVDWKRVMFPASGSGPGVAGSALKGFKGMHHKPPNYPYPYVVGVDGAGEVESVGRKVTGLKAGDRVMFHSSLTNAHGGSLCEYAVMEESVAVPIPADGARPFSYEEAAAIPCATWTAYVALFDKLRIEPGRSIFVDGASGAVGSCAVQLAHHMGLYVFASCSPSNADYVRSIGADQVLNYHDGIEMVDQILDATEGYGVDYYLAVTNTQDAESFTDALRFGGAVCLLSGVLIPNSNVLFRRQLSVHYVFLNGLHGHPLTRPQLRYIGDQVAKLYQSGAFRLD | not soluble
11 | MSLKITDVKVWLVQGIKYNWTLLKIYTDEGYTGVGEATNWPGSPIVFEAAKHVGQRIIGLDPMKTDFIWTKLYRDLNWIGPYGASLCAISGIDMALLDLKAKVLGVPCYELLGGAYRKDIQLYANYWFTGGGHNEADYAAQARRVMDAGFTGLKFDPFAHTNYFYGEDLASNLTLTAEQQDLAFNVSKAVREAVGSECDIMIETHAMLNYRVAVKMAERLAKLDITWYEEPAGPESSQTLRAMRERIPSDVAICVGERHYTRFGIRSLLEKHVCDVIMPDITRCGGPSEMKRMATMAEAYNVLIAPHNPNGPLSTLASSHVCAAIPNFFRQEFMFNDVPWRDTVIDHPIAEMVYDGHLHLSDRPGLGVDLVEEEMEKHPGITTDAPDNFYIEGHHHHHH | soluble
12 | MAAIIRTLFKSKKSKKGDEENNEDLAREVSNRRSFRAPSTSSSKSQRRAVARFADDGALPATAAYHTTSAPKLRKGPQSCPGGYRDESDVSYESDKYSQKSNSHRRRDVLHQSMRQNYTIDEGRKPSSRRHHSSKSDFRRRGESSEYGSGDPSPVGQYSSRHSHYEDRIEESENDDFSEKAQFAVIERAQQHYMQKYKESEQKRREEKRKLKDMEKECNDAKNAMFHYMNQLDKVKKERDCYRKELSRCKKQLEAFQNSGYDAFHHLRQPQISNPQQYPPPLSMGSYPYMSQSMNASHHMSSNFMNSAPPSSNTPMTMTSGAGESLINPSDVSFLQNSFLQPTSQGLTGMTPPPGGFKVPTNYGDDDRDEVKDYRSELLIETSRSTKEVDSISPSSSADSQVTLLDHSTIDKENRKPPSRPFSMMSI | not soluble
13 | MCGISGEFRFDNQAADLAAVERITHHLAPRGPDAWGFHAQGPIALGHRRLKIMDLAEASGQPMIDPDLGLAMVFNGAIYNYPELRGELESLGYRFFSGGDTEVLLKGYHAWGADLLPRLNGMFAFAVWERDRQRLFLARDRLGIKPLYYSLDRSRLRFASSLPALLKGGDIASDLDPQALNFYLNFHAVVPAPHTLLEGVKKLPPATWMSVDLDGSCEQRTWWTLDYGPRPDERELTLDDWQERVLDGLREAVAIRQRAAREVGVLLSGGVDSSLLVGLLHEAGVDNLLTFSIGFEDAGGERGDEFQYSDLIAERYHTRHHRLRIGEHEVIEQLPAAFRAMSEPMVSHDCIAFYLLAREVSKHCKVVQSGQGADELFAGYHWYPKVDGADDAFAAYRAAFFDRDHEEYLATVGERFRVEDVAGRFVRDHFASPGAEAAVDKALRLDSTIMLVDDPVKRVDNMTMAWGLEARVPFLDYRLAELSARIPARFKLGDGGKQVLKGAARKVIPSEVIDRPKGYFPVPGLKHLQGRTREWVRELLLDPSQDRGLFQPAIFDRLLSDPDGDLTPLRG | not soluble
14 | MEGLGRSCLWLRRELSPPRPRLLLLDCRSRELYESARIGGALSVALPALLLRRLRRGSLSVRALLPGPPLQPPPPAPVLLYDQGGGRRRRGEAEAEAEEWEAESVLGTLLQKLREEGYLAYYLQGGFSRFQAECPHLCETSLAGRAGSSMAPVPGPVPVVGLGSLCLGSDCSDAESEADRDSMSCGLDSEGATPPPVGLRASFPVQILPNLYLGSARDSANLESLAKLGIRYILNVTPNLPNFFEKNGDFHYKQIPISDHWSQNLSRFFPEAIEFIDEALSQNCGVLVHCLAGVSRSVTVTVAYLMQKLHLSLNDAYDLVKRKKSNISPNFNFMGQLLDFERSLRLEERHSQEQGSGGQASAASNPPSFFTTPTSDGAFELAPT | soluble
15 | STFVAKDGTQIYFKDWGSGKPVLFSHGWLLDADMWEYQMEYLSSRGYRTIAFDRRGFGRSDQPWTGNDYDTFADDIAQLIEHLDLKEVTLVGFSMGGGDVARYIARHGSARVAGLVLLGAVTPLFGQKPDYPQGVPLDVFARFKTELLKDRAQFISDFNAPFYGINKGQVVSQGVQTQTLQIALLASLKATVDCVTAFAETDFRPDMAKIDVPTLVIHGDGDQIVPFETTGKVAAELIKGAELKVYKDAPHGFAVTHAQQLNEDLLAFLKRGSHHHHHH | soluble
16 | MADEAQAPPAEGAPPAEGEAPPPAEGAEGAVEGGEAAPPAEPAEPIKHSYTLFYFNVKALAEPLRYLFAYGNQEYEDVRVTRDEWPALKPTMPMGQMPVLEVDGKRVHQSISMARFLAKTVGLCGATPWEDLQIDIVVDTINDFRLKIAVVSYEPEDEIKEKKLVTLNAEVIPFYLEKLEQTVKDNDGHLALGKLTWADVYFAGITDYMNYMVKRDLLEPYPALRGVVDAVNALEPIKAWIEKRPVTEV | soluble
17 | MEIDDCIRDNIPWANLSPDIKVILGNSSKEYEKRVLEYSIQNQLRYKGNLIRHMKKSEEAYYEQLLRFSESHLMLYPYHLSDITVTEMRLSPFSYYANILTEMLNTEKSYDSLPNFTAADAVRLLGIGRNQYIELMNQTRSNRKFLRRSKSARELLPQKPTKMIVESWWRTNVGSILESDVKTLNEEEKQVIDRLLDTNVAIPAGLLKYSVVTSLYDRGLIYFDVPVYDNDYIYVAPLDGFVMNRVLGDYFETLLYKIFVAIDDQTTVLEMSQILHIDLQLVKNAISVFCRLGFARKRVTGGENLTIHTSWTSNSTVTTPMSPISPMSSLITSTSDELNELTKTLLRGDDDETDDALSPVSEDSALRASSPNPSLNNSVESFQSLSTSQTASDLSGSSGTVNRAAFIFDSTLTAFLMMGNLSASLKGHAVALFEVGKLADEQMKEFLEQLESVNQFAEGDAQRYSMHATALLDSLKSLRQEREADLIRGESLYTLDEKSRQRVLQKSYGILVAMAPLSIEACAIPVQSVPLIGPPNAETCSPWFRLSIYSACSSGPPSVFLPHGTRLTTLPRVLQSFQHHRFLVSSTKHEPHIMTAQNALFALNDMLVYSSIFVQSVPLDSEDCDKMIHVPFPFEDLECETAFCNHPAIRKLREQLSLDFTAGYVILLKKSGKSITTSGSDISGRTKAESNIMQDVSLPKDGGLLKKLLPGTSFDDFLLLDCVFGVPLFNSVLNETICKRILGRGILEQQNRSNIQNSNKQVVGMINELIDTANNGLIKGSQLFVEGTDQQRNAQIVPPVRAIFFDSSQLISYGTI | not soluble
18 | GMKNIKIMRLVTGEDIIGNISESQGLITIKKAFVIIPMQATPGKPVQLVLSPWQPYTDDKEIVIDDSKVITITSPKDDIIKSYESHTSEIITPSGLITET | soluble
19 | YLYVYKGVYATDEDVPVNPLTGERLRMGGNTSTQAYFKAGDPIWVDVNGDYIIDEKDKVIVGNSQPRMTGGISINLRYKAFSINTNCSFTLRRDIINKALADRFRAYGTPVAGKVNLTGSGALTPIEAYNFWTEDNIYAQYPNPFDYTRSSIIQPFRYDQTLFMEDGSYFKINGISVAYTIPKKMLDFFRISRCQLNFSMNNIYTFSKYSGINPENVNNLGYDTSGGYPNGRTVTFGVSMDF | not soluble
